Laboratory results from patent US20240383982A1 (Genmab, published 2024).

T1: B7H3
T1 construct: also called human B7H3
T1 full-length protein on cells: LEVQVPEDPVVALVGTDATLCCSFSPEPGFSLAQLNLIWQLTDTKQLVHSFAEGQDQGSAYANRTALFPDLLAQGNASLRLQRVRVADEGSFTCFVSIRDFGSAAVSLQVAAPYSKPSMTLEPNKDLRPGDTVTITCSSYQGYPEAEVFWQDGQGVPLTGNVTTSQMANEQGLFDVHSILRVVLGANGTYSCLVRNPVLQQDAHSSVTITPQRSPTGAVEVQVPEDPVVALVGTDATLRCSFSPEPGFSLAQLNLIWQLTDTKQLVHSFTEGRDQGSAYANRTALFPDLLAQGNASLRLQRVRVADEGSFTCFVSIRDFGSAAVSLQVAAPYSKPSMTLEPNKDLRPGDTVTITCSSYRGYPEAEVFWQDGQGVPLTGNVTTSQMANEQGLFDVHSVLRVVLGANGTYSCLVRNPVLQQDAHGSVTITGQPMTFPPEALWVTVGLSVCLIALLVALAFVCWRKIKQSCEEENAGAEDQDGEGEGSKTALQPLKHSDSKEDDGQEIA

T2: B7H3-IgV/B7H4-IgC
T2 construct: also called chimeric molecule with the IgV domain of B7H3 and the IgC domain of B7H4
T2 full-length chimeric protein on cells: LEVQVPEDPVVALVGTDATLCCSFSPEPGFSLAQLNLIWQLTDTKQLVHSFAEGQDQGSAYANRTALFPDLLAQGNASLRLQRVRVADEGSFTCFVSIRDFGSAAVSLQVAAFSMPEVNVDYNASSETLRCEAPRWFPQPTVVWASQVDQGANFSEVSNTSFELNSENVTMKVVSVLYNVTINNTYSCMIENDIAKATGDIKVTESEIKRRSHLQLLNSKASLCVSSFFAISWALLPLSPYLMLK

T3: B7H4-IgV/B7H3-IgC
T3 construct: also called chimeric molecule with the IgV domain of B7H4 and the IgC domain of B7H3
T3 full-length chimeric protein on cells: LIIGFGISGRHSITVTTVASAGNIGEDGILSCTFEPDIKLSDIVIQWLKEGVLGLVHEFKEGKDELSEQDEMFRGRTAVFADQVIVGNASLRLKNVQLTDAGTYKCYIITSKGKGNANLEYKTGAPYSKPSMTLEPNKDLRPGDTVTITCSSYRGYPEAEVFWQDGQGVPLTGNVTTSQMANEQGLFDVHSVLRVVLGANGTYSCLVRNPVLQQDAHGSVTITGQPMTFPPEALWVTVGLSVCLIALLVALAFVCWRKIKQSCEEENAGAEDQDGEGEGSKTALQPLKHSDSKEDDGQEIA


What was measured:
B7H3 = biological target: T1, B7H3; assay: flow cytometry, transiently transfected HEK cells, MFI as % of IgG1-B7H3-BRCA84D
Protocol: (§1) Expression constructs were prepared encoding human B7H4, human B7H3 (Uniprot accession no. Q5ZPR3-1; SEQ ID NO: 9), or a chimeric molecule containing the IgV domain of B7H3 and the IgC domain of B7H4 (B7H3-IgV/B7H4-IgC; SEQ ID NO: 11), or a chimeric molecule containing the IgV domain of B7H4 and the IgC domain of B7H3 (B7H4-IgV/B7H3-IgC; SEQ ID NO: 10). HEK cells were transiently transfected to express these constructs.
(§2) Cells (3×10⁴ cell/well) were incubated in polystyrene 96-well round-bottom plates (Greiner bio-one, cat. no. 650101) with serial dilutions of antibodies (range 0.0046 to 10 μg/mL in 3-fold dilution steps) in 50 μL PBS/0.1% BSA/0.02% azide (FACS buffer) at 4° C. for 30 min. After washing twice in FACS buffer, cells were incubated with secondary antibody at 4° C. for 30 min. As a secondary antibody, R-Phycoerythrin (PE)-conjugated goat-anti-human IgG F(ab′)₂ (1:500 in staining buffer; Jackson ImmunoResearch Laboratories, Inc., West Grove, PA, cat. no. 109-116-098) was used. Next, cells were washed twice in FACS buffer, re-suspended in 20 μL FACS buffer and analyzed on an iQue Screener (Intellicyt Corporation, USA).

B7H3-IgV/B7H4-IgC = biological target: T2, B7H3-IgV/B7H4-IgC; assay: flow cytometry, transiently transfected HEK cells, antibody at 10 µg/mL, MFI as % of the control antibody of the panel
Protocol: as §1, §2

B7H4-IgV/B7H3-IgC = biological target: T3, B7H4-IgV/B7H3-IgC; assay: flow cytometry, transiently transfected HEK cells, antibody at 10 µg/mL, MFI as % of the control antibody of the panel [continued) III]
Protocol: as §1, §2

| Binder | binding result (B7H3) | binding result (B7H3-IgV/B7H4-IgC) | binding result (B7H4-IgV/B7H3-IgC) |
| --- | --- | --- | --- |
| bsIgG1-huCD3-FEALxB7H4-C3-FEAR (bispecific antibody, also called bslgG1-huCD3-FEALxB7H4-C3-FEAR) heavy 1: not shown light 1: not shown heavy 2: EVQLVQSGAEVKKPGASVKVSCKASGYTFTNFWIHWVRQAPGQGLEWIGEIDPSDSYTNYNQKFKGRVTITRDTSTSTAYLELSSLRSEDTAVYYCAREITTVDYWGQGTLVTVSSASTKGPSVFPLAPSSKSTSGGTAALGCLVKDYFPEPVTVSWNSGALTSGVHTFPAVLQSSGLYSLSSVVTVPSSSLGTQTYICNVNHKPSNTKVDKRVEPKSCDKTHTCPPCPAPEFEGGPSVFLFPPKPKDTLMISRTPEVTCVVVAVSHEDPEVKFNWYVDGVEVHNAKTKPREEQYNSTYRVVSVLTVLHQDWLNGKEYKCKVSNKALPAPIEKTISKAKGQPREPQVYTLPPSREEMTKNQVSLTCLVKGFYPSDIAVEWESNGQPENNYKTTPPVLDSDGSFFLYSRLTVDKSRWQQGNVFSCSVMHEALHNHYTQKSLSLSPGK light 2: DIQMTQSPSSLSASVGDRVTITCSATSSISYMHWYQQKPGKAPKGWIYDTSKLAHGVPSRFSGSGSGTDFTLTISSLQPEDFATYYCHQRRSYPFTFGQGTKVEIKRTVAAPSVFIFPPSDEQLKSGTASVVCLLNNFYPREAKVQWKVDNALQSGNSQESVTEQDSKDSTYSLSSTLTLSKADYEKHKVYACEVTHQGLSSPVTKSFNRGEC | no binding (tested: 10 µg/mL) | binds | – |
| bsIgG1-huCD3-FEALxB7H4-C2-FEAR (bispecific antibody, also called bslgG1-huCD3-FEALxB7H4-C2-FEAR) heavy 1: not shown light 1: not shown heavy 2: EVQLVQSGAEVKKPGASVKVSCKASGYTFTSYWIGWVRQAPGQGLEWIGDIYPGGGYTNYNEKFKGRVTITRDTSTSTAYLELSSLRSEDTAVYYCARLDGSSYRGAMDSWGQGTLVTVSSASTKGPSVFPLAPSSKSTSGGTAALGCLVKDYFPEPVTVSWNSGALTSGVHTFPAVLQSSGLYSLSSVVTVPSSSLGTQTYICNVNHKPSNTKVDKRVEPKSCDKTHTCPPCPAPEFEGGPSVFLFPPKPKDTLMISRTPEVTCVVVAVSHEDPEVKFNWYVDGVEVHNAKTKPREEQYNSTYRVVSVLTVLHQDWLNGKEYKCKVSNKALPAPIEKTISKAKGQPREPQVYTLPPSREEMTKNQVSLTCLVKGFYPSDIAVEWESNGQPENNYKTTPPVLDSDGSFFLYSRLTVDKSRWQQGNVFSCSVMHEALHNHYTQKSLSLSPGK light 2: DIQMTQSPSSLSASVGDRVTITCKASQGFNKYVAWYQQKPGKAPKLLIYYTSTLQPGVPSRFSGSGSGRDYTLTISSLQPEDFATYYCLQYGNLLYAFGQGTKVEIKRTVAAPSVFIFPPSDEQLKSGTASVVCLLNNFYPREAKVQWKVDNALQSGNSQESVTEQDSKDSTYSLSSTLTLSKADYEKHKVYACEVTHQGLSSPVTKSFNRGEC | no binding (tested: 10 µg/mL) | – | binds |
